T1: TNFR1 (Homo sapiens, UniProt P19438)
T1 chain: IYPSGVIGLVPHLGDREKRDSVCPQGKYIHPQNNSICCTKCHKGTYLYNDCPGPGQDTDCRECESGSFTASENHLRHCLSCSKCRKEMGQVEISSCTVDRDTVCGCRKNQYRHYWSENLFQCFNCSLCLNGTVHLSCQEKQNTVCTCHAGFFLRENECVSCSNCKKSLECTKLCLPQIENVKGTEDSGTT


Target: T1, TNFR1
Assay: yeast display SC50

Row | Binder | apparent Kd (screen) [nM]
1 | V57R (designed binder) MTLQELLREEALRRAEAEAFRYALELLAEKFPEQKEYLLDLAEEIESQIRSLSGVDREDVRKFLDKEWAWVKELLAEHPAELAEVEAARAARLAELRAEVEAKVAA | 0.79
2 | E33A (designed binder) MTLQELLREEALRRAEAEAFRYALELLAEKFPAQKEYLLDLAEEIESQIRSLSGVDVEDVRKFLDKEWAWVKELLAEHPAELAEVEAARAARLAELRAEVEAKVAA | 0.208
3 | Y37L (designed binder) MTLQELLREEALRRAEAEAFRYALELLAEKFPEQKELLLDLAEEIESQIRSLSGVDVEDVRKFLDKEWAWVKELLAEHPAELAEVEAARAARLAELRAEVEAKVAA | 7.78
4 | A19Y (designed binder) MTLQELLREEALRRAEAEYFRYALELLAEKFPEQKEYLLDLAEEIESQIRSLSGVDVEDVRKFLDKEWAWVKELLAEHPAELAEVEAARAARLAELRAEVEAKVAA | 10.4
5 | S47Y (designed binder) MTLQELLREEALRRAEAEAFRYALELLAEKFPEQKEYLLDLAEEIEYQIRSLSGVDVEDVRKFLDKEWAWVKELLAEHPAELAEVEAARAARLAELRAEVEAKVAA | 0.49
6 | S53N (designed binder) MTLQELLREEALRRAEAEAFRYALELLAEKFPEQKEYLLDLAEEIESQIRSLNGVDVEDVRKFLDKEWAWVKELLAEHPAELAEVEAARAARLAELRAEVEAKVAA | 0.653
7 | V57W (designed binder) MTLQELLREEALRRAEAEAFRYALELLAEKFPEQKEYLLDLAEEIESQIRSLSGVDWEDVRKFLDKEWAWVKELLAEHPAELAEVEAARAARLAELRAEVEAKVAA | 1.27
8 | Y22T (designed binder) MTLQELLREEALRRAEAEAFRTALELLAEKFPEQKEYLLDLAEEIESQIRSLSGVDVEDVRKFLDKEWAWVKELLAEHPAELAEVEAARAARLAELRAEVEAKVAA | 0.49
9 | F31V (designed binder) MTLQELLREEALRRAEAEAFRYALELLAEKVPEQKEYLLDLAEEIESQIRSLSGVDVEDVRKFLDKEWAWVKELLAEHPAELAEVEAARAARLAELRAEVEAKVAA | 0.653
10 | R13V (designed binder) MTLQELLREEALVRAEAEAFRYALELLAEKFPEQKEYLLDLAEEIESQIRSLSGVDVEDVRKFLDKEWAWVKELLAEHPAELAEVEAARAARLAELRAEVEAKVAA | 0.335
11 | A11K (designed binder) MTLQELLREEKLRRAEAEAFRYALELLAEKFPEQKEYLLDLAEEIESQIRSLSGVDVEDVRKFLDKEWAWVKELLAEHPAELAEVEAARAARLAELRAEVEAKVAA | 0.539
12 | E58Q (designed binder) MTLQELLREEALRRAEAEAFRYALELLAEKFPEQKEYLLDLAEEIESQIRSLSGVDVQDVRKFLDKEWAWVKELLAEHPAELAEVEAARAARLAELRAEVEAKVAA | 0.653
13 | L3C (designed binder) MTCQELLREEALRRAEAEAFRYALELLAEKFPEQKEYLLDLAEEIESQIRSLSGVDVEDVRKFLDKEWAWVKELLAEHPAELAEVEAARAARLAELRAEVEAKVAA | 12.5
14 | T2L (designed binder) MLLQELLREEALRRAEAEAFRYALELLAEKFPEQKEYLLDLAEEIESQIRSLSGVDVEDVRKFLDKEWAWVKELLAEHPAELAEVEAARAARLAELRAEVEAKVAA | 0.49
15 | Q34G (designed binder) MTLQELLREEALRRAEAEAFRYALELLAEKFPEGKEYLLDLAEEIESQIRSLSGVDVEDVRKFLDKEWAWVKELLAEHPAELAEVEAARAARLAELRAEVEAKVAA | 0.593
16 | D56M (designed binder) MTLQELLREEALRRAEAEAFRYALELLAEKFPEQKEYLLDLAEEIESQIRSLSGVMVEDVRKFLDKEWAWVKELLAEHPAELAEVEAARAARLAELRAEVEAKVAA | 0.956
17 | A42R (designed binder) MTLQELLREEALRRAEAEAFRYALELLAEKFPEQKEYLLDLREEIESQIRSLSGVDVEDVRKFLDKEWAWVKELLAEHPAELAEVEAARAARLAELRAEVEAKVAA | 2.25
18 | D56R (designed binder) MTLQELLREEALRRAEAEAFRYALELLAEKFPEQKEYLLDLAEEIESQIRSLSGVRVEDVRKFLDKEWAWVKELLAEHPAELAEVEAARAARLAELRAEVEAKVAA | 2.25
19 | L39Q (designed binder) MTLQELLREEALRRAEAEAFRYALELLAEKFPEQKEYLQDLAEEIESQIRSLSGVDVEDVRKFLDKEWAWVKELLAEHPAELAEVEAARAARLAELRAEVEAKVAA | 1.27
20 | Q34C (designed binder) MTLQELLREEALRRAEAEAFRYALELLAEKFPECKEYLLDLAEEIESQIRSLSGVDVEDVRKFLDKEWAWVKELLAEHPAELAEVEAARAARLAELRAEVEAKVAA | 1.05
21 | E46K (designed binder) MTLQELLREEALRRAEAEAFRYALELLAEKFPEQKEYLLDLAEEIKSQIRSLSGVDVEDVRKFLDKEWAWVKELLAEHPAELAEVEAARAARLAELRAEVEAKVAA | 0.593
22 | T2C (designed binder) MCLQELLREEALRRAEAEAFRYALELLAEKFPEQKEYLLDLAEEIESQIRSLSGVDVEDVRKFLDKEWAWVKELLAEHPAELAEVEAARAARLAELRAEVEAKVAA | 2.73
23 | E9Y (designed binder) MTLQELLRYEALRRAEAEAFRYALELLAEKFPEQKEYLLDLAEEIESQIRSLSGVDVEDVRKFLDKEWAWVKELLAEHPAELAEVEAARAARLAELRAEVEAKVAA | 1.05
24 | Q48F (designed binder) MTLQELLREEALRRAEAEAFRYALELLAEKFPEQKEYLLDLAEEIESFIRSLSGVDVEDVRKFLDKEWAWVKELLAEHPAELAEVEAARAARLAELRAEVEAKVAA | 13.8

More lines, now with the values ahead:

Row | apparent Kd (screen) [nM] | Binder
25 | 11.4 | R61D (designed binder) MTLQELLREEALRRAEAEAFRYALELLAEKFPEQKEYLLDLAEEIESQIRSLSGVDVEDVDKFLDKEWAWVKELLAEHPAELAEVEAARAARLAELRAEVEAKVAA
26 | 0.79 | V60C (designed binder) MTLQELLREEALRRAEAEAFRYALELLAEKFPEQKEYLLDLAEEIESQIRSLSGVDVEDCRKFLDKEWAWVKELLAEHPAELAEVEAARAARLAELRAEVEAKVAA
27 | 0.653 | D65Y (designed binder) MTLQELLREEALRRAEAEAFRYALELLAEKFPEQKEYLLDLAEEIESQIRSLSGVDVEDVRKFLYKEWAWVKELLAEHPAELAEVEAARAARLAELRAEVEAKVAA
28 | 0.593 | D65G (designed binder) MTLQELLREEALRRAEAEAFRYALELLAEKFPEQKEYLLDLAEEIESQIRSLSGVDVEDVRKFLGKEWAWVKELLAEHPAELAEVEAARAARLAELRAEVEAKVAA
29 | 1.05 | A106K (designed binder) MTLQELLREEALRRAEAEAFRYALELLAEKFPEQKEYLLDLAEEIESQIRSLSGVDVEDVRKFLDKEWAWVKELLAEHPAELAEVEAARAARLAELRAEVEAKVAK
30 | 0.49 | E84T (designed binder) MTLQELLREEALRRAEAEAFRYALELLAEKFPEQKEYLLDLAEEIESQIRSLSGVDVEDVRKFLDKEWAWVKELLAEHPAELATVEAARAARLAELRAEVEAKVAA
31 | 1.69 | A106N (designed binder) MTLQELLREEALRRAEAEAFRYALELLAEKFPEQKEYLLDLAEEIESQIRSLSGVDVEDVRKFLDKEWAWVKELLAEHPAELAEVEAARAARLAELRAEVEAKVAN
32 | 0.653 | A87Q (designed binder) MTLQELLREEALRRAEAEAFRYALELLAEKFPEQKEYLLDLAEEIESQIRSLSGVDVEDVRKFLDKEWAWVKELLAEHPAELAEVEQARAARLAELRAEVEAKVAA
33 | 0.539 | L93M (designed binder) MTLQELLREEALRRAEAEAFRYALELLAEKFPEQKEYLLDLAEEIESQIRSLSGVDVEDVRKFLDKEWAWVKELLAEHPAELAEVEAARAARMAELRAEVEAKVAA
34 | 1.05 | V85H (designed binder) MTLQELLREEALRRAEAEAFRYALELLAEKFPEQKEYLLDLAEEIESQIRSLSGVDVEDVRKFLDKEWAWVKELLAEHPAELAEHEAARAARLAELRAEVEAKVAA
35 | 0.446 | A76W (designed binder) MTLQELLREEALRRAEAEAFRYALELLAEKFPEQKEYLLDLAEEIESQIRSLSGVDVEDVRKFLDKEWAWVKELLWEHPAELAEVEAARAARLAELRAEVEAKVAA
